What was measured:
crystal structure = molecular target: the molecule itself; assay: crystal structure
[1] = molecular target: the molecule itself; assay: SDS-PAGE of the folded channel

| Protein | binding result (crystal structure) | stoichiometry N [1] |
| --- | --- | --- |
| KcsA V76ester channel, truncated for crystallization (domain or fragment, UniProt P0A334 1-125, looked up, peptide bond between residues 75 and 76 (Thr75-Val76, the 4' amide bond) replaced with an ester linkage) MPPMLSGLLARLVKLLLGRHGSALHWRAAGAATVLLVIVLLAGSYLAVLAERGAPGAQLITYPRALWWACETATTVGYGDLCPVTLWGRLVAVVVMVAGITSFGLVTAALATWFVGREQERRGHF | binds |  |
| KcsA V76ester channel (semisynthetic, full length) (natural protein, UniProt P0A334 1-160, looked up, peptide bond between residues 75 and 76 (Thr75-Val76, the 4' amide bond) replaced with an ester linkage) MPPMLSGLLARLVKLLLGRHGSALHWRAAGAATVLLVIVLLAGSYLAVLAERGAPGAQLITYPRALWWACETATTVGYGDLCPVTLWGRLVAVVVMVAGITSFGLVTAALATWFVGREQERRGHFVRHSEKAAEEAYTRTTRALHERFDRLERMLDDNRR |  | 4 |

Source: paper PMC4876015 (Structure (London, England : 1993), 2016)
